Source: IntAct's records for PubMed 12839993

B1: Cullin-1 (Arabidopsis thaliana (Mouse-ear cress)), Q94AH6 (parent)
chain: MERKTIDLEQGWDYMQTGITKLKRILEGLNEPAFDSEQYMMLYTTIYNMCTQKPPHDYSQQLYDKYREAFEEYINSTVLPALREKHDEFMLRELFKRWSNHKVMVRWLSRFFYYLDRYFIARRSLPPLNEVGLTCFRDLVYNELHSKVKQAVIALVDKEREGEQIDRALLKNVLDIYVEIGMGQMERYEEDFESFMLQDTSSYYSRKASSWIQEDSCPDYMLKSEECLKKERERVAHYLHSSSEPKLVEKVQHELLVVFASQLLEKEHSGCRALLRDDKVDDLSRMYRLYHKILRGLEPVANIFKQHVTAEGNALVQQAEDTATNQVANTASVQEQVLIRKVIELHDKYMVYVTECFQNHTLFHKALKEAFEIFCNKTVAGSSSAELLATFCDNILKKGGSEKLSDEAIEDTLEKVVKLLAYISDKDLFAEFYRKKLARRLLFDRSANDDHERSILTKLKQQCGGQFTSKMEGMVTDLTLARENQNSFEDYLGSNPAANPGIDLTVTVLTTGFWPSYKSFDINLPSEMIKCVEVFKGFYETKTKHRKLTWIYSLGTCHINGKFDQKAIELIVSTYQAAVLLLFNTTDKLSYTEILAQLNLSHEDLVRLLHSLSCAKYKILLKEPNTKTVSQNDAFEFNSKFTDRMRRIKIPLPPVDERKKVVEDVDKDRRYAIDAAIVRIMKSRKVLGHQQLVSECVEQLSRMFKPDIKAIKKRMEDLITRDYLERDKENPNMFRYLA

Columns and labels:
[1] = variants of: B1; conditions: with skp1a_arath SKP1A
[2] = variants of: B1; conditions: with iaa7_arath IAA7, Q38825
Sequence of iaa7_arath IAA7, Q38825 (Q38825 whole entry): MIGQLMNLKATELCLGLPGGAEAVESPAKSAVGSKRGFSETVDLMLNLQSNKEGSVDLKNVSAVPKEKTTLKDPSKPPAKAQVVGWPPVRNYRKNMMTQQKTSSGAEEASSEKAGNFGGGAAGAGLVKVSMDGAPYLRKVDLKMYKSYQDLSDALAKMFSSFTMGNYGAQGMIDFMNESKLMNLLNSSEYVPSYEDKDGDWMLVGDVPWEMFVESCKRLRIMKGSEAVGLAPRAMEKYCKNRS

Row | effect of a mutation on the interaction [1] | effect of a mutation on the interaction [2] | Variant
1 | decreasing interaction | decreasing interaction | F112I
2 | decreasing interaction | decreasing interaction | F112V
